# Test results taken from US11504374B2, “Compositions and methods for the treatment of a beta-catenin-associated disease or disorder” (Dicerna Pharmaceuticals, Inc., priority 2016, dated 2022).
# B1: BCAT1: nucleic acid inhibitor molecule targeting the β-catenin gene; sense strand SEQ ID NO:1, antisense strand SEQ ID NO:2 (nucleic acid)
# sense: AGAAUACAAAUGAUGUAGAAACAGCC
# antisense: UAGCUAUCGTGGCUGUUUCUACAUCAUUUGUAUUCUGC
# modifications: chemistry not given here
# What was measured:
# [1] = test system: SW403 tumors; assay: Tumor growth inhibition, subcutaneous SW403 colorectal tumors in nude mice; format: in vivo; settings: for tumor growth inhibition: each agent alone, 0.3 mg/kg
# Procedure: (§1) 6-8 week old Hsd:Athymic Nude-Foxn1^nu mice (hereby referred to as nude mice) were injected subcutaneously with LS411N (5×10^6 cells), SW403 (5×10^6 cells), Ls174t (5×10^6 cells) or Hep3B (5×10^6 cells+matrigel) under the right shoulder. Tumor volume was measured twice a week to monitor tumor growth/suppression. Dosing was initiated when the tumors reached 200-250 mm^3. For tumor growth inhibition studies, animals were randomized and assigned to different cohorts and subjected to dosing cycles. BCAT1 or LNP was given intravenously via lateral tail vein at a total volume of 10 ml/kg. Trametinib was given orally at a volume of 10 mi/kg.
# (§2) Human cell lines LS411N and SW403, Ls174t and Hep3B were obtained from ATCC (Manassas, Va.) and grown in RPMI/DMEM medium supplemented with 10% FBS. LS411N is a human colorectal cell line harboring mutations in the adenomatous polyposis coli (APC) and BRAF genes. APC is a component of the destruction complex in the Wnt signaling pathway. SW403 is a human colorectal cell line harboring mutations in the APC and KRAS genes. LS174t is a human colorectal cell line harboring mutations in the CTNNB1 and KRAS genes.
# The combination treatment was also evaluated in a third CRC model (SW403) that has APC and KRAS mutations. As described for the other two models, we first checked the single agent Trametinib efficacy at different dose levels in these tumors and picked 0.3 mg/kg as the optimal dose for the combination study (FIG. 5C). BCAT1 was administered at the same dose (0.3 mg/kg) and used in combination with Trametinib.
# In these CRC models, tumors generally develop resistance to Trametinib over time. To investigate this resistance, SW403 tumors were continuously treated with Trametinib at 3 mg/kg doses (qdx3, 3 mg/kg×3) until the tumors stopped responding to the treatment. Once the tumors stopped responding and became resistant to Trametinib treatment, we treated the tumors with a combination of BCAT1 and Trametinib (qdx3, 3mpk+ qdx3, 3mpk) (around Day 42). […]
# [2] = test system: LS411N tumors; assay: Tumor growth inhibition, subcutaneous LS411N colorectal tumors in nude mice; format: in vivo; settings: for growth inhibition: single agent, 0.1 mg/kg; for tumor growth inhibition: 2 cycles
# Procedure: as §1, §2
# The single agent efficacy of BCAT1 was evaluated at different dose levels in different colorectal cancer models. […] FIG. 2A. […] FIG. 2C. […] Without intending to be bound by any theory, it appears that the Wnt pathway may be reactivated when treatment is stopped.
# We then evaluated the single agent Trametinib in LS411N tumor bearing mice at different dose levels (3, 1 and 0.3 mg/kg) and selected […] as the dose to be used in the combination study. FIG. 5A. For BCAT1, a dose of 0.1 mg/kg was selected from the previous single agent efficacy studies to be used in combination with Trametinib to treat LS411N tumors. […] FIG. 5B.
# [3] = test system: Ls174t liver metastases; assay: Survival in Ls174t CRC liver metastases model; format: in vivo, nude mice; settings: for mice that died around day 48: 2 mg/kg or 2+2 mg/kg, start 3 weeks after implantation; for median survival: single agent 2 mg/kg, start 3 weeks after implantation of 2×10^6 cells
# Procedure: (§3) Colorectal cancer (CRC) liver metastases models were generated by surgically implanting 1-2×10^6 cells in the spleen of nude mice after midline abdominal incision. After surgery, the abdominal incision was closed with 5-0 to 6-0 absorbable, nonbraided suture and the skin was closed with a single wound clip. Mice were anesthetized with isoflurane before initiating the surgery and during surgery. Buprenorphine was given preoperatively and post-operatively at 0.1 mg/kg subcutaneously for pain relief. Mice were held in a pathogen-free environment and all procedures involving animals were performed according to protocols approved by Dicerna Pharmaceuticals' Institutional Animal Care and Use Committee (Dicerna-IACUC).
# We developed multiple CRC liver metastatic models by surgically implanting Ls174t and LS411N cells in spleen.
# Before we evaluated the combination strategies in these CRC metastatic models, we ran a single agent Trametinib efficacy in the Ls174t liver metastatic model. Fewer number of Ls174t cells (1×10^6 cells) were implanted in the spleen this model to reduce the aggressiveness of the tumor progression. 18 days after the implantation, mice were randomly distributed into 3 groups and treated with PBS, Trametinib at 1 mg/kg or Trametinib at 3 mg/kg dose levels (qdx3, 3 cycles).
# Next we ran a combination efficacy study in mice bearing Ls714t liver metastasis based on the doses used in the single agent efficacy studies. This time, the treatment was initiated 3 weeks after tumor implantation of 2×10^6 Ls174t cells. BCAT1, Placebo, and Trametinib were dosed at 2 mg/kg and the combination groups (Placebo+Trametinib or BCAT1+Trametinib) were dosed at 2+2 mg/kg.
# [4] = test system: Hep3B tumors; assay: Tumor growth inhibition, mouse model bearing Hep3B tumors; format: in vivo; settings: administered individually at 2 mg/kg
# Procedure: as §1
# Combination therapy with BCAT1 and a nucleic acid inhibitor molecule that targets the c-Myc gene (“MYC1”) was also evaluated. MYC1 has a 25 base pair passenger strand and a 27 base pair guide strand that form a duplex region consisting of 25 base pairs, where the 3′ end of the passenger strand and 5′ end of the guide strand form a blunt end, and the 3′ end of the guide strand consists of a single-stranded, two-base overhang. FIG. 9. The MYC1 construct was formulated in EnCore LNP.
# [5] = test system: LS411N liver metastases; assay: Survival in LS411N CRC liver metastases model; format: in vivo, nude mice; settings: qdx3, 3 mg/kg, 3 weeks
# Procedure: as §3
# We developed multiple CRC liver metastatic models by surgically implanting Ls174t and LS411N cells in spleen. 2-5 weeks after implanting 2×10^6 cells, the primary Ls174t tumors grown in the spleen spontaneously metastasized to the liver. To see if BCAT1 monotherapy will treat both primary and metastatic tumors and improve survival, 2 weeks after the tumor implantation, mice bearing Ls174t tumors were treated with BCAT1 or placebo at 3 mg/kg doses (qdx3, 3 mg/kg, 3 cycles). […] The […] survival time (“MST”) of the control-treated group is 31 days, whereas the MST of the BCAT1-treated group is 46 days).
# Similarly, the mice with LS411N liver metastases were also treated with BCAT1 or controls (placebo or PBS) at the same dose levels for 3 weeks. Unlike the Ls174t tumors, LS411N tumors took a much longer time to metastasize to the liver after implanting 2×10^6 cells in the spleen. The treatment was initiated 18 days after the implantation of LS411N cells in the spleen. It took 112 days for all the control treated mice to die. […] It took about 6 months for all of the BCAT1-treated mice to die. In summary, BCAT treatment extended the survival of mice bearing LS411N liver metastasis by up to two-fold compared to the control treatment groups (MST of PBS/Placebo treatment groups is 99-102 days, whereas the MST of the BCAT1-treated group is 181 days).
# [6] = test system: multiple tumor types (xenograft, PDX, GEM tumors); assay: Delivery of LNP formulated BCAT1 nucleic acid payload to tumors in mouse models; format: in vivo
# Text: The BCAT1 construct was formulated in EnCore lipid nanoparticles (LNP).
# [7] = test system: RKO tumors; assay: Tumor growth inhibition, β-catenin/APC wild type RKO colorectal tumors; format: in vivo; settings: qdx3, 3 mg/kg, 2 cycles
# [8] = test system: LS174t tumors; assay: Tumor growth inhibition, subcutaneous Ls174t colorectal tumors in nude mice; format: in vivo; settings: qdx3, 3 mg/kg, 2 cycles
# Procedure: as §1, §2
# Combination therapy with BCAT1 and an MEK inhibitor (trametinib) was evaluated. Trametinib (99% purity) was dissolved in DMSO to make a clear solution of 5 mg/ml. […]
# [9] = start 18 days after implantation
molecule,measurement,setting,value
"CC(=O)Nc1cccc(-n2c(=O)n(C3CC3)c(=O)c3c(Nc4ccc(I)cc4F)n(C)c(=O)c(C)c32)c1 [Trametinib, trametinib]",tumor growth inhibition,[1],40%
same,growth inhibition,[2],about 20%
same,mean survival time (MST),"[3]; 1 mg/kg, qdx3, 3 cycles, 1×10^6 cells, start 18 days after implantation",47 days
same,mice that died around day 48,[3],90%
same,mean survival time (MST),"[3]; 3 mg/kg, qdx3, 3 cycles, 1×10^6 cells, start 18 days after implantation",65 days
same,median survival,"[3]; qdx3, 3 cycles",44 days
"MYC1: nucleic acid inhibitor molecule targeting the c-Myc gene; sense strand SEQ ID NO:5, antisense strand SEQ ID NO:6 (sense AGCUUUUUUGCCCUGCGUGACCAGA; antisense UCUGGUCACGCAGGGCAAAAAAGCUCC; listed as RNA, chemistry not given here)",growth inhibition,[4],40%
B1,extension of survival compared to control treatment groups,[5],up to two-fold
same,time for all treated mice to die,[5],about 6 months
same,mean survival time (MST),[5]; [9],181 days
same,mice surviving at 112 days post-implant,[5]; [9],75%
same,delivery of BCAT1 to tumors,"[6]; HCT116, DLD1, HL60","Negative: HCT116, DLD1, HL60"
same,delivery of the nucleic acid payload to tumors,"[6]; LNP formulated, tumor types of Table I (subcutaneous, orthotopic, disseminated, metastatic xenografts, PDX, GEM)",effectively delivered
same,anti-tumor efficacy,[7],No efficacy
same,tumor growth inhibition,[1],20%
same,anti-tumor efficacy,"[1]; qdx3, 3 mg/kg, 2 cycles",Robust efficacy
same,tumor growth after therapy discontinued,"[2]; qdX3, 3 mg/kg, discontinued after the second cycle",tumor growth resumed to a level roughly comparable to untreated subjects
same,tumor growth inhibition,"[2]; qdx3, 0.3 mg/kg",47%
same,tumor growth inhibition relative to vehicle-treated animals,"[2]; qdx3, 1 mg/kg, two weekly dosing cycles, i.v.",82%
same,tumor growth inhibition,"[2]; qwx1, 3 mg/kg, weekly dosing",60%
same,growth inhibition,[2],about 20%
same,anti-tumor efficacy,[8],Robust efficacy
same,growth inhibition,[4],47%
same,mice that died around day 48,[3],90%
same,mean survival time (MST),"[3]; qdx3, 3 mg/kg, 3 cycles, start 2 weeks after implantation of 2×10^6 cells",46 days
same,median survival,"[3]; qdx3, 3 cycles",45 days
